Measurements from the supplement of paper PMC10567573.

B1: PPFIA4 (parent)
chain: PGVHRRYSALREESAKDWETSPLP

Variants of: B1
Assay: protein stability index of a GFP-peptide fusion (GPS, HEK-293T) (PSI 1-6); higher = more stable
Details: c terminus: a fixed tail appended
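Note: lentivirally expressed fusions sorted by FACS into six bins by GFP to DsRed ratio, PSI derived from sequencing read proportions per bin multiplied by bin number.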

Protein stability index, by site and new letter:
A9: F 2.91 | N 4.4 | W 3.58 | M 3.86 | C 3.67 | Q 3.5 | T 4.19 | P 2.93 | K 4.03 | G 3.87 | L 4.27 | H 3.92 | Y 3.4 | S 4.22 | E 3.92 | V 4.12
R5: Y 3.66
R6: E 4.88 | C 3.72 | T 4.35 | S 4 | K 4.65 | D 4.7 | G 3.98 | I 3.39 | M 3.82 | P 3.91 | F 3.74 | Q 4.31 | N 4.48 | Y 3.62 | A 4.49 | W 2.71 | L 3.04 | H 3.65
L10: Y 4.02 | M 4.31 | I 4.15 | V 4.26 | W 4.31 | S 4.53 | F 4.29 | A 3.69 | C 2.28 | T 4.97 | P 4.97 | Q 3.63 | K 4.69 | D 4.97 | N 4.79 | H 4.48
R11: S 4.55 | H 3.67 | T 4.88 | A 4.31 | I 3.92 | G 3.41 | P 4.19 | L 3.86 | F 3.59 | Y 3.79 | M 4.45 | K 4.36 | Q 4.65 | C 4.37 | E 5.29 | D 4.82 | W 3.16 | N 4.58 | V 4.21
A15: F 3.52 | C 3.63 | G 4.07 | L 4.12 | D 4.92 | E 4.52 | K 4.59 | H 4.39
S8: P 4.28 | H 3.76 | R 4.07 | L 3.54 | T 2.88 | E 4.35 | C 3.16 | F 3.08 | W 2.08 | G 4.23 | Q 4.86 | Y 3.79 | K 4.64 | V 3.67 | N 4.34 | I 3.62 | D 4.97
E12: H 3.85 | S 3.68 | P 3.88 | F 3.02 | R 3.45 | M 3.56 | W 3.11 | Q 3.68 | C 3.57 | D 4.05 | K 3.96 | G 4.62 | L 3.45 | T 4.02 | I 3.21 | N 4.23 | A 3.94 | Y 3.48
S14: P 3.87 | V 3.92 | R 3.07 | K 5 | I 4.05 | T 3.56 | W 2.81 | F 3.63 | D 4.92 | G 4.12 | Y 3.46 | E 4.69 | Q 3.63 | L 3.93 | M 3.41 | H 4.19 | N 4.69
E13: M 2.96 | G 3.93 | F 3.8 | V 4.06 | Q 4.04 | S 3.96 | K 3.69 | T 3.51 | C 2.38 | P 3.11 | A 3.75 | I 3.45 | Y 3.14 | H 2.63 | N 3.42 | W 2.64 | D 3.74 | L 3.34
Y7: L 4.18 | T 4.27 | W 4.2 | V 4.49 | N 4.5 | E 5.25 | R 4.6 | G 4.62 | K 4.58 | H 4.39 | C 3.87 | I 4.34 | P 4.24 | A 4.8 | F 4.13 | S 4.58 | D 4.38 | Q 4.9 | M 4.56
